Data on two molecules can be found in article PMC10074858.

Assay [1] addresses alpha-fetoprotein receptor (human (endogenous in tumor cell lines)). Description: plate-reader fluorescence of labeled protein bound to and internalized by cells; 0.5 µM F-ACT-101 (Alexa Fluor 647) with tumor cells at 37 °C for 0.5, 2 and 5 h, stopped on ice, cells washed, sonicated with DMSO, fluorescence read; background subtracted; binding/internalization as ng per million cells; n = 3.

Assay [2] has the same target. Description: flow cytometry on cells; COLO-205 or U937 cells, F-ACT-101 (Alexa Fluor 488) at 1, 3, 10, 30 and 100 µg/mL in cold PBS for 1 h on ice; percent of cells positive. Background: A flow cytometer gives signals particle by particle.

B1: Fluorescently labeled ACT-101 (Alexa Fluor 647) (ligand)
chain: RTLHRNEYGIASILDSYQCTAEISLADLATIFFAQFVQEATYKEVSKMVKDALTAIEKPTGDEQSSGCLENQLPAFLEELCHEKEILEKYGHSDCCSQSEEGRHNCFLAHKKPTPASIPLFQVPEPVTSCEAYEEDRETFMNKFIYEIARRHPFLYAPTILLWAARYDKIIPSCCKAENAVECFQTKAATVTKELRESSLLNQHACAVMKNFGTRTFQAITVTKLSQKFTKVQFTEIQKLVLDVAHVHEHCCRGDVLDCLQDGEKIMSYICSQQDTLSNKITECCKLTTLERGQCIIHAENDEKPEGLSPNLNRFLGDRDFNQFSSGEKNIFLASFVHEYSRRHPQLAVSVILRVAKGYQELLEKCFQTENPLECQDKGEEELQKYIQESQALAKRSCGLFQKLGEYYLQNAFLVAYTKKAPQLTSSELMAITRKMAATAATCCQLSEDKLLACGEGAADIIIGHLCIRHEMTPVNPGVGQCCTSSYANRRPCFSSLVVDETYVPPAFSDDKFIFHKDLCQAQGVALQTMKQEFLINLVKQKPQITEEQLEAVIADFSGLLEKCCQGQEQEVCFAEEGQKLISKTRAALGV
modifications: Alexa Fluor 647 label (protein labeling kit); sites not stated
B1: in assay [1], the ng F-ACT-101 per million cells (COLO-205, 0.5 h) (ng/million cells) came to 6.9; the ng F-ACT-101 per million cells (COLO-205, 2 h) (ng/million cells) stood at 33.6; the ng F-ACT-101 per million cells (COLO-205, 5 h) (ng/million cells) worked out at 75; the ng F-ACT-101 per million cells (H522, 0.5 h) (ng/million cells) amounted to 55.6. In assay [1], this molecule registered a ng F-ACT-101 per million cells (H522, 2 h) (ng/million cells) of 27.1; a ng F-ACT-101 per million cells (H522, 5 h) (ng/million cells) of 71.3; a ng F-ACT-101 per million cells (MCF-7, 0.5 h) (ng/million cells) of 51; a ng F-ACT-101 per million cells (MCF-7, 2 h) (ng/million cells) of 53.6. Moreover, in assay [1], the ng F-ACT-101 per million cells (MCF-7, 5 h) (ng/million cells) worked out at 126; the ng F-ACT-101 per million cells (OVCAR-3, 0.5 h) (ng/million cells) was determined as 67; the ng F-ACT-101 per million cells (OVCAR-3, 2 h) (ng/million cells) is 21.2; the ng F-ACT-101 per million cells (OVCAR-3, 5 h) (ng/million cells) is 71. In assay [1], this molecule had a ng F-ACT-101 per million cells (SKOV-3, 0.5 h) (ng/million cells) of 31.3; a ng F-ACT-101 per million cells (SKOV-3, 2 h) (ng/million cells) of 9.2; a ng F-ACT-101 per million cells (SKOV-3, 5 h) (ng/million cells) of 16; a ng F-ACT-101 per million cells (U937, 0.5 h) (ng/million cells) of 29.5. Also, in assay [1], the ng F-ACT-101 per million cells (U937, 2 h) (ng/million cells) came out at 67.1 and the ng F-ACT-101 per million cells (U937, 5 h) (ng/million cells) was determined as 84.3.

B2: Fluorescently labeled ACT-101 (Alexa Fluor 488) (ligand)
chain: RTLHRNEYGIASILDSYQCTAEISLADLATIFFAQFVQEATYKEVSKMVKDALTAIEKPTGDEQSSGCLENQLPAFLEELCHEKEILEKYGHSDCCSQSEEGRHNCFLAHKKPTPASIPLFQVPEPVTSCEAYEEDRETFMNKFIYEIARRHPFLYAPTILLWAARYDKIIPSCCKAENAVECFQTKAATVTKELRESSLLNQHACAVMKNFGTRTFQAITVTKLSQKFTKVQFTEIQKLVLDVAHVHEHCCRGDVLDCLQDGEKIMSYICSQQDTLSNKITECCKLTTLERGQCIIHAENDEKPEGLSPNLNRFLGDRDFNQFSSGEKNIFLASFVHEYSRRHPQLAVSVILRVAKGYQELLEKCFQTENPLECQDKGEEELQKYIQESQALAKRSCGLFQKLGEYYLQNAFLVAYTKKAPQLTSSELMAITRKMAATAATCCQLSEDKLLACGEGAADIIIGHLCIRHEMTPVNPGVGQCCTSSYANRRPCFSSLVVDETYVPPAFSDDKFIFHKDLCQAQGVALQTMKQEFLINLVKQKPQITEEQLEAVIADFSGLLEKCCQGQEQEVCFAEEGQKLISKTRAALGV
modifications: Alexa Fluor 488 label (microscale protein labeling kit); sites not stated
On to B2, for which, in assay [2], the percent of cells positive for binding (COLO-205, at 100 µg/mL) came out at 90% and the percent of cells positive for binding (U937, at 100 µg/mL) worked out at 90%.
